According to US10344330B2, “Glatiramer acetate response biomarker mRNA potency assay” (Mylan Inc., priority 2013, dated 2019):

Key:
[1] = tested on: mouse TNF-α mRNA in primary LN cells; test: Validation: mouse TNF-α mRNA by real-time PCR in LN cells of GA-immunized SJL/J mice (Example IV); format: cell-based; conditions: for TNF-α mRNA Fold Change: normalized to GAPDH
Experimental: Three experiments were conducted using one batch of GA (Mylan GMA). The primary LN cells were stimulated by incubation with 6 concentrations (0.3 to 20 μg/mL) of the GA for 6 hours at 37° C. Total RNA was isolated from LN cells stimulated with GA or controls. cDNA was synthesized from the RNA and the mRNA levels of seven mouse cytokines, IL-2, IL-4, IL-5, IL-10, IL-13, interferon (IFN)-γ and tumor necrosis factor (TNF)-α, were quantitatively measured by a real-time PCR method.
Female SJL/J mice at 8-9 weeks of age were immunized by injection into four footpads using a 1 mL syringe with a 27-G, ½-inch needle. Each mouse received a total injection volume of 0.1 mL of GMA emulsified in CFA (about 10 μL into each of the front footpads and 40 μL into each of the hind footpads). Animals were immunized on Day 0. After injection, animals were placed back in their cages and housed ≤6 animals per cage.
Immunized animals were sacrificed by cervical dislocation on Day 10 following immunization. […] After centrifugation at about 200×g for 10 minutes at 4° C., the cell pellet was re-suspended in 40 mL of DCCM-1 medium for cell counting. A Trypan blue exclusion method was used to determine the cell density of viable cells in the suspension. After cell counting, the LN cells were suspended in enriched DCCM-1 medium at density of 7.5×10^6 cells/mL. LN cells (0.12 mL) were plated into each well of 96-well tissue culture plates.
Dilutions of GA (Mylan GMA) were prepared using enriched DCCM-1 medium as the diluent. GA dilutions (0.12 mL) were added in the assigned wells of 96-well tissue culture plates. The same volume of LN cells (0.12 mL) isolated from immunized animals was added to the assigned wells. A positive control and a negative control were always performed in the same assay by treating LN cells with 2.5 μg/mL ConA and 10 μg/mL MBP, respectively. The LN cells with mock stimulation protocols (enriched DCCM-1 medium) were used to monitor the background mRNA level of a cytokine. The plates were incubated at 37° C. in a humidified 5% CO2 incubator for 6 hr.
At the end of incubation time, culture medium from stimulated cells was removed by aspiration and the cells were lysed using Qiagen or Promega lysis buffer. The lysate was transferred to an RNeasy Mini column (Qiagen) or wells of the SV 96 Binding Plate (Promega) for RNA isolation and cDNA synthesis. All tested samples were run in triplicate.
The SV 96 Total RNA Isolation System (Promega; Cat. No. Z3505) was used for total RNA isolation. Assay procedures were carried out according to each manufacturer's protocol. RNA samples were stored at −70° C. until use. […] The assay procedure was carried out according to the manufacturer's protocol.
The plate was centrifuged at 2000 rpm for 2 minutes at 4° C. to spin down the contents and eliminate air bubbles. Samples were prepared and run in a 96-well plate using a Life Technologies Real-Time PCR system (previously Applied Biosystems; Model No. 7500) according to the manufacturer's recommendation. The mix for the reference gene was prepared in the same way using the reference gene primer.
A relative quantitation method was used to analyze changes in mIL-2, mIL-4, mIL-5, mIL-10, mIL-13, mIFN-γ and TNF-α expression in GA treated samples relative to the untreated control (Enriched DCCM-1 treated) samples using the following program:
Levels of mouse cytokine amplicons were normalized to an internal probe level (GAPDH) from the same samples. The following equations were used to calculate the relative increase in response to GA stimulation compared to the control sample (Enriched DCCM1 sample): […]

[2] = tested on: mouse IL-5 mRNA in primary LN cells; test: Mouse IL-5 mRNA in LN cells of immunized SJL/J mice stimulated with Copaxone and GMA lots, normalized to Actβ or GAPDH (Example V); format: cell-based
Experimental: A real-time polymerase chain reaction method was used to measure the expression of cytokine mRNA in GA-stimulated LN cells from GA-immunized SJL/J mice. Normalization of expression with two different housekeeping genes, GAPDH and β-actin, was tested.
Each group consisted of six female SJL/J mice immunized by injection in all four footpads with a total dose of 250 μg of one lot of GA, or mannitol and no GA. Three Copaxone batches and three GMA batches were used to immunize the mice. CFA was included in both GA and mannitol immunizations. Ten days following immunization, LN cell samples isolated from the immunized mice were each stimulated with a concentration of a Copaxone lot and a GMA lot. A positive control of 2.5 μg/mL ConA treated LN cells and a negative control of 10 μg/mL MBP treated cells were included in each group.
In the initial run, a lack of reproducibility was observed when cytokine mRNA levels were normalized to GAPDH mRNA levels. Therefore, the Q-PCR analysis was repeated on the samples, measuring levels of IL-2, IL-4, IL-5, and IL-13, using both GAPDH and β-actin as reference gene.
The RNA isolation and analysis procedures were similar to those described in Example IV. The expression levels of mouse IL-2, IL-4, IL-5 and IL-13 mRNA observed are summarized below in Tables 29 to 36. As shown by the data in Tables 30, 32, 34 and 36, a lack of reproducibility in the findings again was observed when cytokine mRNA levels were normalized to GAPDH mRNA for all cytokines except IL-13.

With “Concanavalin A [ConA, reference compound]” the “TNF-α mRNA Fold Change” value ([1]; Experiment 1, 2.5 μg/mL) was 1.9 fold, the “TNF-α mRNA Fold Change” value ([1]; Experiment 2, 2.5 μg/mL) was 0.8 fold and the “TNF-α mRNA Fold Change” value ([1]; Experiment 3, 2.5 μg/mL) was 1.6 fold. For the same molecule, the “IL-5 mRNA Fold Change” value ([2]; Group 3 (mice immunized with GA-M2 Mylan GMA), 2.5 μg/mL, normalized to Actβ) was 19.1 fold, the “IL-5 mRNA Fold Change” value ([2]; Group 4 (mice immunized with GA-C2 Copaxone), 2.5 μg/mL, normalized to Actβ) was 27.8 fold and the “IL-5 mRNA Fold Change” value ([2]; Group ID 3, 2.5 μg/mL, normalized to GAPDH) was 21.1 fold. For the same molecule, the “IL-5 mRNA Fold Change” value ([2]; Group ID 4, 2.5 μg/mL, normalized to GAPDH) was 59.4 fold.

B1: MBP: myelin basic protein, a negative control (protein, UniProt P02686 1-304, looked up)
Myelin basic protein: MGNHAGKRELNAEKASTNSETNRGESEKKRNLGELSRTTSEDNEVFGEADANQNNGTSSQDTAVTDSKRTADPKNAWQDAHPADPGSRPHLIRLFSRDAPGREDNTFKDRPSESDELQTIQEDSAATSESLDVMASQKRPSQRHGSKYLATASTMDHARHGFLPRHRDTGILDSIGRFFGGDRGAPKRGSGKDSHHPARTAHYGSLPQKSHGRTQDENPVVHFFKNIVTPRTPPPSQGKGRGLSLSRFSWGAEGQRPGFGYGGRASDYKSAHKGFKGVDAQGTLSKIFKLGGRDSRSGSPMARR
With B1 the “TNF-α mRNA Fold Change” value ([1]; Experiment 1, 10 μg/mL) was 1.0 fold, the “TNF-α mRNA Fold Change” value ([1]; Experiment 2, 10 μg/mL) was 1.1 fold and the “TNF-α mRNA Fold Change” value ([1]; Experiment 3, 10 μg/mL) was 1.1 fold. The “TNF-α mRNA expression level in response to MBP treatment” value ([1]; SJL/J, MBP 10 μg/mL, all PCR runs) was at most 2 fold, the “IL-5 mRNA Fold Change” value ([2]; Group 3 (mice immunized with GA-M2 Mylan GMA), 10 μg/mL, normalized to Actβ) was 0.6 fold and the “IL-5 mRNA Fold Change” value ([2]; Group 4 (mice immunized with GA-C2 Copaxone), 10 μg/mL, normalized to Actβ) was 1.1 fold. For the same molecule, the “IL-5 mRNA Fold Change” value ([2]; Group ID 3, 10 μg/mL, normalized to GAPDH) was 0.6 fold and the “IL-5 mRNA Fold Change” value ([2]; Group ID 4, 10 μg/mL, normalized to GAPDH) was 2.3 fold.
